The target of this test is m19-humBBz CAR (mouse; human) (UniProt P01731). Description: cell-based or functional assay.

B1: TRAF1 DN (184-417aa) (protein, UniProt Q13077 184-416, looked up, not shown: small tags and cut ends; large carriers)
chain: EKLLAELEGKLRVFENIVAVLNKEVEASHLALATSIHQSQLDRERILSLEQRVVELQQTLAQKDQALGKLEQSLRLMEEASFDGTFLWKITNVTRRCHESACGRTVSLFSPAFYTAKYGYKLCLRLYLNGDGTGKRTHLSLFIVIMRGEYDALLPWPFRNKVTFMLLDQNNREHAIDAFRPDLSSASFQRPQSETNVASGCPLFFPLSKLQSPKHAYVKDDTMFLKCIVETST
Take B1: the NF-κB signaling in NF-κB/293/GFP-Luc reporter cells, GFP % came out at 13.4% and the NF-κB signaling in NF-κB/293/GFP-Luc reporter cells, GFP MFI worked out at 1690 MFI.

B2: TRAF3 DN (382-568aa) (protein, UniProt Q13114 382-568, looked up, not shown: small tags and cut ends; large carriers)
chain: ESQLSRHDQMLSVHDIRLADMDLRFQVLETASYNGVLIWKIRDYKRRKQEAVMGKTLSLYSQPFYTGYFGYKMCARVYLNGDGMGKGTHLSLFFVIMRGEYDALLPWPFKQKVTLMLMDQGSSRRHLGDAFKPDPNSSSFKKPTGEMNIASGCPVFVAQTVLENGTYIKDDTIFIKVIVDTSDLPDP
For B2, the NF-κB signaling in NF-κB/293/GFP-Luc reporter cells, GFP % stood at 30.8% and the NF-κB signaling in NF-κB/293/GFP-Luc reporter cells, GFP MFI is 6060 MFI.

B3: TRAF2 DN (87-501aa) (protein, UniProt Q12933 87-501, looked up, not shown: small tags and cut ends; large carriers)
chain: SSSAFPDNAARREVESLPAVCPSDGCTWKGTLKEYESCHEGRCPLMLTECPACKGLVRLGEKERHLEHECPERSLSCRHCRAPCCGADVKAHHEVCPKFPLTCDGCGKKKIPREKFQDHVKTCGKCRVPCRFHAIGCLETVEGEKQQEHEVQWLREHLAMLLSSVLEAKPLLGDQSHAGSELLQRCESLEKKTATFENIVCVLNREVERVAMTAEACSRQHRLDQDKIEALSSKVQQLERSIGLKDLAMADLEQKVLEMEASTYDGVFIWKISDFARKRQEAVAGRIPAIFSPAFYTSRYGYKMCLRIYLNGDGTGRGTHLSLFFVVMKGPNDALLRWPFNQKVTLMLLDQNNREHVIDAFRPDVTSSSFQRPVNDMNIASGCPLFCPVSKMEAKNSYVRDDAIFIKAIVDLTGL
For B3, the NF-κB signaling in NF-κB/293/GFP-Luc reporter cells, GFP MFI was determined as 14300 MFI and the NF-κB signaling in NF-κB/293/GFP-Luc reporter cells, GFP+% came to 63.5%.

The record behind these values is patent US20230265184A1.
